The values that follow come from patent US4748122A, “2,5-diketo-D-gluconic acid reductase” (Shionogi & Co., Ltd., priority 1983, dated 1988).

Substrate in the series: O=C(O)C(=O)[C@@H](O)[C@H](O)C(=O)CO
As to the kind of experiment: Spectrophotometric enzymatic activity (decrease in absorption at 340 nm), purified enzyme solution of Example 1. In kind it is biochemical, Corynebacterium sp. No. 20A-77 mutant (FERM-BP 108). The settings on record: other: varying concentrations of Ca-25DKG, 0.1M TB pH 7, 30° C.

B1: 25DKG-Rase (Corynebacterium sp. SHS752001) (protein)
chain: PNIPTISLNDGRPFAEPGLGTYNLRGDEGVAAMVAAIDSGYRLLDTAVNYENESEVGRAVRASSVDRDELIVASKIPGRQHGRAEAVDSIRGSLDRLGLDVIDLQLIHWPNPSVGRWLDTWRGMIDAREAGLVRSIGVSNFTEPMLKTLIDETGVTPAVNQVELHPYFPQAALRAFHDEHGIRTESWSPLARRSELLTEQLLQELAVVYGVTPTQVVLRWHVQLGSTPIPKSADPDRQRENADVFGFALTADQVDAISGLERGRLWDGDPDTHEEM
notes: The enzyme is an intracellular enzyme extracted from the cells of the 2KLG producing strain; made in house; host or cells: natural producer Corynebacterium sp; No. 20A-77 mutant FERM-BP 108, enzyme purified from sonicated cells; not recombinant
As to B1, the Km (commonly the concentration of substrate that gives half-maximal velocity) is 1800 ± 1000 µM.
